Where a chain is given by its changes, count along the chain named.
B1: NRC3_wobSeed98_DR4_A19G_o1 (dsDNA)
DNA 1: GCACTAGTTGGTCAGCTGGGGTCACACACAATTCGGGCGATTGACAGCGTAGAATGAAGG
DNA 2: CCTTCATTCTACGCTGTCAATCGCCCGAATTGTGTGTGACCCCAGCTGACCAACTAGTGC
B2: NRC3_wobSeed82_DR3_T25A_o1 (dsDNA)
DNA 1: GCATCGAAAGGTCGACGAGGTGAGAATACACCGTTTGCGATTGACAGCGTAGAATGAAGG
DNA 2: CCTTCATTCTACGCTGTCAATCGCAAACGGTGTATTCTCACCTCGTCGACCTTTCGATGC
B3: NRC3_wobSeed74_DR3_G7C_o1 (dsDNA)
DNA 1: GCTCTACTTGGTCACGGAGGTCACACACGACGGGTAGCGATTGACAGCGTAGAATGAAGG
DNA 2: CCTTCATTCTACGCTGTCAATCGCTACCCGTCGTGTGTGACCTCCGTGACCAAGTAGAGC
B4: NRC3_wobSeed74_DR3_G10C_o1 (dsDNA)
DNA 1: B3 DNA 1 with C7G, G10C
DNA 2: B3 DNA 2 with C51G, G54C
B5: NRC3_wobSeed74_DR3_T8C_o1 (dsDNA)
DNA 1: B3 DNA 1 with C7G, T8C
DNA 2: B3 DNA 2 with A53G, G54C
B6: NRC3_wobSeed130_DR5_C17G_o1 (dsDNA)
DNA 1: GCCTCGAAAGGTCGTGGTCAGGTGAGTATACCAAACGCGATTGACAGCGTAGAATGAAGG
DNA 2: CCTTCATTCTACGCTGTCAATCGCGTTTGGTATACTCACCTGACCACGACCTTTCGAGGC
B7: NRC3_wobSeed50_DR2_C4T_o1 (dsDNA)
DNA 1: GCCTTAGTTGGTCAGGAGGTCACACACCGGATATGAGCGATTGACAGCGTAGAATGAAGG
DNA 2: CCTTCATTCTACGCTGTCAATCGCTCATATCCGGTGTGTGACCTCCTGACCAACTAAGGC
B8: NRC3_wobSeed50_DR2_T8A_o1 (dsDNA)
DNA 1: B7 DNA 1 with T4C, T8A
DNA 2: B7 DNA 2 with A53T, A57G
B9: NRC3_wobSeed58_DR2_C5G_o1 (dsDNA)
DNA 1: GCATGGAAAGGTCGTGAGGTGAGTATACAGAAAGGCGCGATTGACAGCGTAGAATGAAGG
DNA 2: CCTTCATTCTACGCTGTCAATCGCGCCTTTCTGTATACTCACCTCACGACCTTTCCATGC
B10: NRC3_wobSeed58_DR2_T26C_o1 (dsDNA)
DNA 1: B9 DNA 1 with G5C, T26C
DNA 2: B9 DNA 2 with A35G, C56G
B11: NRC3_wobSeed58_DR2_G18A_o1 (dsDNA)
DNA 1: B9 DNA 1 with G5C, G18A
DNA 2: B9 DNA 2 with C43T, C56G
B12: NRC3_wobSeed58_DR2_A25T_o1 (dsDNA)
DNA 1: B9 DNA 1 with G5C, A25T
DNA 2: B9 DNA 2 with T36A, C56G
B13: NRC3_wobSeed65_DR2_G27T_o1 (dsDNA)
DNA 1: GCATATGTAGGTTATCGGGTCATTCATTTTGCGCATGCGATTGACAGCGTAGAATGAAGG
DNA 2: CCTTCATTCTACGCTGTCAATCGCATGCGCAAAATGAATGACCCGATAACCTACATATGC
B14: NRC3_wobSeed65_DR2_T15C_o1 (dsDNA)
DNA 1: B13 DNA 1 with T15C, T27G
DNA 2: B13 DNA 2 with A34C, A46G
B15: NRC3_wobSeed125_DR5_G17T_o1 (dsDNA)
DNA 1: GCCCTTACGGGTCACTTACAGGTTATAGCATTTGGAGCGATTGACAGCGTAGAATGAAGG
DNA 2: CCTTCATTCTACGCTGTCAATCGCTCCAAATGCTATAACCTGTAAGTGACCCGTAAGGGC
B16: NRC3_wobSeed125_DR5_G22C_o1 (dsDNA)
DNA 1: B15 DNA 1 with T17G, G22C
DNA 2: B15 DNA 2 with C39G, A44C
B17: NRC3_wobSeed1_DR0_T12C_o1 (dsDNA)
DNA 1: GCCAAACTAGGCCAAGGTCAAAGTCGGTTTGTGCCAGCGATTGACAGCGTAGAATGAAGG
DNA 2: CCTTCATTCTACGCTGTCAATCGCTGGCACAAACCGACTTTGACCTTGGCCTAGTTTGGC
B18: NRC3_wobSeed18_DR0_o1 (dsDNA)
DNA 1: GCGATACAGGGTCAAGGCCAGAGTACGCGTATTGATGCGATTGACAGCGTAGAATGAAGG
DNA 2: CCTTCATTCTACGCTGTCAATCGCATCAATACGCGTACTCTGGCCTTGACCCTGTATCGC
B19: NRC3_wobSeed76_DR3_C13A_o1 (dsDNA)
DNA 1: GCCCTACTGGGCAAAAAAGGTCATTGATGCCGATAAGCGATTGACAGCGTAGAATGAAGG
DNA 2: CCTTCATTCTACGCTGTCAATCGCTTATCGGCATCAATGACCTTTTTTGCCCAGTAGGGC
B20: NRC3_wobSeed93_DR3_T17A_o1 (dsDNA)
DNA 1: GCAGTCAAAGTTCATCAAGGTAACGTAAGATATGCTGCGATTGACAGCGTAGAATGAAGG
DNA 2: CCTTCATTCTACGCTGTCAATCGCAGCATATCTTACGTTACCTTGATGAACTTTGACTGC
B21: NRC3_wobSeed118_DR4_G15A_o1 (dsDNA)
DNA 1: GCTTACCAAGGTGAACTGAGGTCGTTGATCCAACTCGCGATTGACAGCGTAGAATGAAGG
DNA 2: CCTTCATTCTACGCTGTCAATCGCGAGTTGGATCAACGACCTCAGTTCACCTTGGTAAGC
B22: NRC3_wobSeed116_DR4_G26T_o1 (dsDNA)
DNA 1: GCAGAATGAGGTTACCAAAGATCAGTGAAACGCTTGGCGATTGACAGCGTAGAATGAAGG
DNA 2: CCTTCATTCTACGCTGTCAATCGCCAAGCGTTTCACTGATCTTTGGTAACCTCATTCTGC
B23: NRC3_wobSeed116_DR4_A6G_o1 (dsDNA)
DNA 1: B22 DNA 1 with A6G, T26G
DNA 2: B22 DNA 2 with A35C, T55C
B24: NRC3_wobSeed4_DR0_A14G_o1 (dsDNA)
DNA 1: GCCCTACTGGGCCGAGGTCATTGATCAGTCAAAGCAGCGATTGACAGCGTAGAATGAAGG
DNA 2: CCTTCATTCTACGCTGTCAATCGCTGCTTTGACTGATCAATGACCTCGGCCCAGTAGGGC
B25: NRC3_wobSeed4_DR0_T25C_o1 (dsDNA)
DNA 1: B24 DNA 1 with G14A, T25C
DNA 2: B24 DNA 2 with A36G, C47T
B26: NRC3_wobSeed4_DR0_T8A_o1 (dsDNA)
DNA 1: B24 DNA 1 with T8A, G14A
DNA 2: B24 DNA 2 with C47T, A53T
B27: NRC3_wobSeed124_DR5_T26C_o1 (dsDNA)
DNA 1: GCCCTACTGGGCCATTCAGAGGTCACTGATCATATGGCGATTGACAGCGTAGAATGAAGG
DNA 2: CCTTCATTCTACGCTGTCAATCGCCATATGATCAGTGACCTCTGAATGGCCCAGTAGGGC
B28: NRC3_wobSeed5_DR0_G23C_o1 (dsDNA)
DNA 1: GCCCTTACGGGTCAAGGTTATACCACGGGTGGTACGGCGATTGACAGCGTAGAATGAAGG
DNA 2: CCTTCATTCTACGCTGTCAATCGCCGTACCACCCGTGGTATAACCTTGACCCGTAAGGGC
B29: NRC3_wobSeed27_DR1_C4G_o1 (dsDNA)
DNA 1: GCAGTCGGAGGACAAAGGTCAGAGCTACGCCAGTGAGCGATTGACAGCGTAGAATGAAGG
DNA 2: CCTTCATTCTACGCTGTCAATCGCTCACTGGCGTAGCTCTGACCTTTGTCCTCCGACTGC
B30: NRC3_wobSeed21_DR0_A15T_o1 (dsDNA)
DNA 1: GCCGTCAAAGTTCATGGTAACGTAACAGAAAGCAGCGCGATTGACAGCGTAGAATGAAGG
DNA 2: CCTTCATTCTACGCTGTCAATCGCGCTGCTTTCTGTTACGTTACCATGAACTTTGACGGC
B31: NRC3_wobSeed21_DR0_C21A_o1 (dsDNA)
DNA 1: B30 DNA 1 with T15A, C21A
DNA 2: B30 DNA 2 with G40T, A46T
B32: NRC3_wobSeed2_DR0_A22G_o1 (dsDNA)
DNA 1: GCCCTAGTTGGTCAAGGTCACGCACGCTATAGGTACGCGATTGACAGCGTAGAATGAAGG
DNA 2: CCTTCATTCTACGCTGTCAATCGCGTACCTATAGCGTGCGTGACCTTGACCAACTAGGGC
B33: NRC3_wobSeed69_DR2_A21T_o1 (dsDNA)
DNA 1: GCAGTCAAAGTTCACTAGGTTACGTAAGATTCAGCTGCGATTGACAGCGTAGAATGAAGG
DNA 2: CCTTCATTCTACGCTGTCAATCGCAGCTGAATCTTACGTAACCTAGTGAACTTTGACTGC

Target: LXRb:RXRa (Homo sapiens, UniProt P55055;P19793 full;full)
Sequence (P55055 whole entry, chain 1 of 2): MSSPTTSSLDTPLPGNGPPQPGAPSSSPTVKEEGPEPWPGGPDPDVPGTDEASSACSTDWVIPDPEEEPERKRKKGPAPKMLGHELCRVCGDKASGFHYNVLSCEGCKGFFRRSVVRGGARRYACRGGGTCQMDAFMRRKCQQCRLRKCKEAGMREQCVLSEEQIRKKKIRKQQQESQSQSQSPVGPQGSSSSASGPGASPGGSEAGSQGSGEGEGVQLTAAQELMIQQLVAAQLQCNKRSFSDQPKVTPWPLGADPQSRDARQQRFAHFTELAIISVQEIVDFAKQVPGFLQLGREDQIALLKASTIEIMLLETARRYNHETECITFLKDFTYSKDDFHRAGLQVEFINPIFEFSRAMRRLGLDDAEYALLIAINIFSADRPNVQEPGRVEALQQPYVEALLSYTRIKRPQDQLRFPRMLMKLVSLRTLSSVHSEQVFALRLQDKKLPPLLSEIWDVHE
Sequence (P19793 whole entry, chain 2 of 2): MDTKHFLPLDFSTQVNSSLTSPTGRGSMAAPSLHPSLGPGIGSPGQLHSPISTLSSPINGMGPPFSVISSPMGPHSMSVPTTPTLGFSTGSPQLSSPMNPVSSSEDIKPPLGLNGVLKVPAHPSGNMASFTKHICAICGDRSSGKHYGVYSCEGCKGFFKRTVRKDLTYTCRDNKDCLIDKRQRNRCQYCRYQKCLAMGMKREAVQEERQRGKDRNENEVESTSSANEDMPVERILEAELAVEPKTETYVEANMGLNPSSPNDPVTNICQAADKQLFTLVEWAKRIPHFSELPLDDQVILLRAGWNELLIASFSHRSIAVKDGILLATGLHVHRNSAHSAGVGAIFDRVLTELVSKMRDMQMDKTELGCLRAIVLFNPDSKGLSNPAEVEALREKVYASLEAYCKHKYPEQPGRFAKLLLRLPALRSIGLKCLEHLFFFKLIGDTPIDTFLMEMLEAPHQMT
Experiment: no ligand; PBM; 270 nM : 90 nM RXRa; PBS pH 7.4, 2% milk, 0.02% Triton X-100, 1 mM DTT, BSA, 0.4 mg/ml salmon testes DNA
Conditions: tags: His kept;His cleaved; copies: 1;1; label: surface-attached array probe
Summary of the method: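 Regression normalization was applied to scanned fluorescence from custom Agilent 4×180K protein-binding microarrays. Before scanning, arrays were incubated 1 h with ligand-free nuclear receptor dimers, and binding was detected with antibodies against each partner (one per run). Binding z-scores use the random background probes as reference.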

| Binder | binding signal |
| --- | --- |
| B1 | 3.54 PBM z-score against 500 random probes |
| B2 | 3.13 PBM z-score against 500 random probes |
| B3 | 3.61 PBM z-score against 500 random probes |
| B4 | 3.52 PBM z-score against 500 random probes |
| B5 | 3.16 PBM z-score against 500 random probes |
| B6 | 3.33 PBM z-score against 500 random probes |
| B7 | 3.43 PBM z-score against 500 random probes |
| B8 | 3.37 PBM z-score against 500 random probes |
| B9 | 3.62 PBM z-score against 500 random probes |
| B10 | 3.15 PBM z-score against 500 random probes |
| B11 | 3.09 PBM z-score against 500 random probes |
| B12 | 3.5 PBM z-score against 500 random probes |
| B13 | 3.32 PBM z-score against 500 random probes |
| B14 | 3.17 PBM z-score against 500 random probes |
| B15 | 3.58 PBM z-score against 500 random probes |
| B16 | 3.19 PBM z-score against 500 random probes |
| B17 | 3.41 PBM z-score against 500 random probes |

| Binder | binding signal |
| --- | --- |
| B18 | 3.7 PBM z-score against 500 random probes |
| B19 | 3.73 PBM z-score against 500 random probes |
| B20 | 3.53 PBM z-score against 500 random probes |
| B21 | 3.08 PBM z-score against 500 random probes |
| B22 | 3.35 PBM z-score against 500 random probes |
| B23 | 3.28 PBM z-score against 500 random probes |
| B24 | 3.45 PBM z-score against 500 random probes |
| B25 | 3.2 PBM z-score against 500 random probes |
| B26 | 3.02 PBM z-score against 500 random probes |
| B27 | 3.39 PBM z-score against 500 random probes |
| B28 | 3.06 PBM z-score against 500 random probes |
| B29 | 3.47 PBM z-score against 500 random probes |
| B30 | 3.49 PBM z-score against 500 random probes |
| B31 | 3.04 PBM z-score against 500 random probes |
| B32 | 3.68 PBM z-score against 500 random probes |
| B33 | 3.64 PBM z-score against 500 random probes |
